Results published in patent publication CN112521508A (BEIJING GUANGWEI BIOTECHNOLOGY CO LTD, dated 2021).

T1: 人CD20蛋白 (human CD20) (human, UniProt P11836 1-297, limits assumed)
T1 construct: its title names human CD20; also called 抗原
T1 sequence (looked up): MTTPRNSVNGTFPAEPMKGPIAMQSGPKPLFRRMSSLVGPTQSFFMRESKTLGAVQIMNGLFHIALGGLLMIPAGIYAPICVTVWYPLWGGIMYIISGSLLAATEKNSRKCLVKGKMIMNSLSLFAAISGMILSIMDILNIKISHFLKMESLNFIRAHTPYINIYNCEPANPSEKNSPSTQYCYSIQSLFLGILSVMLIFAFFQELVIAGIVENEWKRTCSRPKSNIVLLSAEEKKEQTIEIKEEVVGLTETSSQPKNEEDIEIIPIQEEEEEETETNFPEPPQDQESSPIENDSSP


Target: T1, 人CD20蛋白 (human CD20)
Assay: SPR (CM5 chip), antibody captured by anti-human capture antibody, antigen as analyte

Binder	Kd	koff	kon
Rituximab (antibody, V domains shown) VH: QVQLQQPGAELVKPGASVKMSCKASGYTFTSYNMHWVKQTPGRGLEWIGAIYPGNGDTSYNQKFKGKATLTADKSSSTAYMQLSSLTSEDSAVYYCARSTYYGGDWYFNVWGAGTTVTVSA VL: QIVLSQSPAILSASPGEKVTMTCRASSSVSYIHWFQQKPGSSPKPWIYATSNLASGVPVRFSGSGSGTSYSLTISRVEAEDAATYYCQQWTSNPPTFGGGTKLEIK	5.46 nM	0.000345 s⁻¹	63100 M⁻¹ s⁻¹
hG7B2-IgG1 (antibody, V domains shown) VH: QVQLVQSGGEVKKPGASVKVSCKTSGYRFTSGKNAVWVRQAPGQGLEWMGGIATGKFNLSVDLQGRLTLTTDTSTSTAYMELGSLRPDDTAVYYCTRDIRLYAGDYWGQGTLVTVSS VL: DIVLTQPASVSGSPGQSVTISCSAIDGNCFNKVSWYQQHPGKAPKLMIYDASKRCTGIPERFSGSNSGNTATLTISRVEAGDEADYYCQAASKDAPITTFGRGTKLTVL	0.215 nM	5.31e-05 s⁻¹	246000 M⁻¹ s⁻¹
